In assay [1] the target is T1, Δ619-624 of EPB41L5 (Flag-tagged deletion construct) (human, UniProt Q9HCM4 1-733).
T1 construct: also called A619-624; not shown: Flag tag from vector pSG5-KF2M1-Flag
Nature of the assay: immunofluorescent staining of MKN28 cells co-transfected with EPB41L5 siRNA and construct. As to the method:
At this time, the immunofluorescent staining was performed using anti-EPB41L5 mAb and anti-Flag antibodies. Green represents EPB41L5, red represents Flag tag, blue represents Hochest, and scale bars represent 20 μm.
Considering the characteristics of nonpermeabilized immunofluorescent staining, in order to inhibit expression of endogenous EPB41L5, cells were co-transfected with EPB41L5 siRNA and any one plasmid selected from among FL (full length) of EPB41L5, FERM of EPB41L5, C-terminus of EPB41L5 and Δ619-624 of EPB41L5. Then, expression of exogenous EPB41L5 was analyzed using anti-Flag antibody. EPB41L5 expression was detected in […] transfected with FL and C-terminal constructs and in MKN28 cells […] with A619-624 (FIG. 6H).

For assay [2], the target named is T2, FERM of EPB41L5 (N-terminal FERM domain construct, Flag-tagged) (human, UniProt Q9HCM4 43-327).
T2 construct: the real construct is only its N-terminal FERM domain; not shown: Flag tag from vector pSG5-KF2M1-Flag
Nature of the assay: Western blot of transfected 293T cells. A general note: In western blotting, separated proteins are transferred to a membrane and probed.

T1 sequence (Q9HCM4 other isoform, or with tags, fused parts or gaps mutant): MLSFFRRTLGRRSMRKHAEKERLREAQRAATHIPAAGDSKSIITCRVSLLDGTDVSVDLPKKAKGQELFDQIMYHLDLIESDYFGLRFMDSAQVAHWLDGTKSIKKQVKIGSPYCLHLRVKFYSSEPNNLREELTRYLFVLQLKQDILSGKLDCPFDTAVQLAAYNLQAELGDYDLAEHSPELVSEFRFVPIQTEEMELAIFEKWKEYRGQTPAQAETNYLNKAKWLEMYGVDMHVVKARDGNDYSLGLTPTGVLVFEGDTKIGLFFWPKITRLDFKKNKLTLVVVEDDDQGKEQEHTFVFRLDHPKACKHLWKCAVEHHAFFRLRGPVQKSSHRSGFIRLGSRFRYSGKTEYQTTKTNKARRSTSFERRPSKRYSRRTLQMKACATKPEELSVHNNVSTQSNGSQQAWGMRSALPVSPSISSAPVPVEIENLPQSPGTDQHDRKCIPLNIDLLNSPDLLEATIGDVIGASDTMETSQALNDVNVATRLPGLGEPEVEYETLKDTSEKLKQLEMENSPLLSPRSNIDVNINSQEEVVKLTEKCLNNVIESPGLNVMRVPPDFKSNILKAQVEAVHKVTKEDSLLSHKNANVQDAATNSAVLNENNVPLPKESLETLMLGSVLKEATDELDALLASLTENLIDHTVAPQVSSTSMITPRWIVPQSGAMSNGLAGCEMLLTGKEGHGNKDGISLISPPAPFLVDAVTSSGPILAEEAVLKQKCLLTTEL
T2 sequence (Q9HCM4 43-327): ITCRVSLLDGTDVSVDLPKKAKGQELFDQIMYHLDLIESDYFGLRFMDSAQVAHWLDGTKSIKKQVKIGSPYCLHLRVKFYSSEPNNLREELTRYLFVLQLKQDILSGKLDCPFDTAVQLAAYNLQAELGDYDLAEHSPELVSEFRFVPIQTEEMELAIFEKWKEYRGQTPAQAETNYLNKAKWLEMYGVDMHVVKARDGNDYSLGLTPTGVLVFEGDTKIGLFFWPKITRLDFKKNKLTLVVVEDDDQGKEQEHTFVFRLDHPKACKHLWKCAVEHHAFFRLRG

B1: anti-EPB41L5 monoclonal antibody (antibody, V domains shown)
VH: QVQLKESGTVLARPGASVKMSCKASGYTFTSYWMHWVKQRPGQGLEWIGAIYPGNSDTSYNQKFKDKAKLTAVTSTSTAYMELSSLTDEASAVYYCTRGGKLPFAMDYWGQGTSVTVSS
VL: DVLMTQTPLSLPVSLGDQASMSCRSSQSLVHSNGNTYLHWYLQKPGQSPKLLIYKVSNRFSGVPDRFSGSGSGTDFTLKISRVEAEDLGVYFCSQSTHVPWTFGGGTKLEIK
notes: also called anti-EPB41L5 mAb; EPB41L5 mAb
Consider B1, for which the binding result in assay [1] and in assay [2] was “no binding” in each case.

Values taken from patent US20210252145A1 (CELLASTER, published 2021).
